The text below walks through data of paper doi:10.1101/2025.04.14.648677 (bioRxiv, 2025).

Data set [1] concerns the target IRE1β_LD, wildtype (analytical SEC) (not stated (human numbering used; mouse IRE1β_LD used in cells)). Nature of the data set: SEC.
The data set “AUC” deals with the molecule itself. The experiment in a line: AUC.
Data set [2] concerns the target T1, AGR2 H117Y (not stated (human or mouse AGR2 made)), O95994.
T1 chain: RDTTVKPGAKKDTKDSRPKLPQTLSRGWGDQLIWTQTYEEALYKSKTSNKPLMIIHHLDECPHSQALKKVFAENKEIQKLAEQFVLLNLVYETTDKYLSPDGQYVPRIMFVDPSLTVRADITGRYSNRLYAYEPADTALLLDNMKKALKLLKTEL
Nature of the data set: SEC. The conditions noted are these: remark: other sources report otherwise.

The data set “SEC-SAXS” concerns the molecule itself. The experiment in a line: SEC-SAXS.

For “IRE1β_LD, wildtype (analytical SEC) (domain or fragment)”, the stoichiometry N in data set [1] is 2.

B1: mouse AGR2 (residues 21-175), AUC (natural protein, UniProt O88312 21-175, looked up)
chain: KDTTVKSGAKKDPKDSRPKLPQTLSRGWGDQLIWTQTYEEALYRSKTSNRPLMVIHHLDECPHSQALKKVFAEHKEIQKLAEQFVLLNLVYETTDKHLSPDGQYVPRIVFVDPSLTVRADITGRYSNRLYAYEPSDTALLYDNMKKALKLLKTEL
Take B1: the binding result in the data set “AUC” is on record as “binds”.

B2: AGR2 H117Y, O95994 21-175 (natural protein)
chain: RDTTVKPGAKKDTKDSRPKLPQTLSRGWGDQLIWTQTYEEALYKSKTSNKPLMIIHHLDECPHSQALKKVFAENKEIQKLAEQFVLLNLVYETTDKYLSPDGQYVPRIMFVDPSLTVRADITGRYSNRLYAYEPADTALLLDNMKKALKLLKTEL
As to B2, the stoichiometry N in data set [2] was 2.

B3: Human AGR2^41-171 (domain or fragment, UniProt O95994 41-171, looked up)
chain: PQTLSRGWGDQLIWTQTYEEALYKSKTSNKPLMIIHHLDECPHSQALKKVFAENKEIQKLAEQFVLLNLVYETTDKHLSPDGQYVPRIMFVDPSLTVRADITGRYSNRLYAYEPADTALLLDNMKKALKLL
As for B3, the “stoichiometry N” value in the data set “SEC-SAXS” stood at 2.
